This note sets out measurements from paper doi:10.1101/2021.01.28.428596.

The target in the assay is RIR1-GFP (ProRIR1:RIR1-GFP in the rir1-1 mutant) (Arabidopsis thaliana) (UniProt C0LGG9). Nature of the assay: FRET or BRET.
Chain of UniProt C0LGG9 (C0LGG9 27-1035, change not shown): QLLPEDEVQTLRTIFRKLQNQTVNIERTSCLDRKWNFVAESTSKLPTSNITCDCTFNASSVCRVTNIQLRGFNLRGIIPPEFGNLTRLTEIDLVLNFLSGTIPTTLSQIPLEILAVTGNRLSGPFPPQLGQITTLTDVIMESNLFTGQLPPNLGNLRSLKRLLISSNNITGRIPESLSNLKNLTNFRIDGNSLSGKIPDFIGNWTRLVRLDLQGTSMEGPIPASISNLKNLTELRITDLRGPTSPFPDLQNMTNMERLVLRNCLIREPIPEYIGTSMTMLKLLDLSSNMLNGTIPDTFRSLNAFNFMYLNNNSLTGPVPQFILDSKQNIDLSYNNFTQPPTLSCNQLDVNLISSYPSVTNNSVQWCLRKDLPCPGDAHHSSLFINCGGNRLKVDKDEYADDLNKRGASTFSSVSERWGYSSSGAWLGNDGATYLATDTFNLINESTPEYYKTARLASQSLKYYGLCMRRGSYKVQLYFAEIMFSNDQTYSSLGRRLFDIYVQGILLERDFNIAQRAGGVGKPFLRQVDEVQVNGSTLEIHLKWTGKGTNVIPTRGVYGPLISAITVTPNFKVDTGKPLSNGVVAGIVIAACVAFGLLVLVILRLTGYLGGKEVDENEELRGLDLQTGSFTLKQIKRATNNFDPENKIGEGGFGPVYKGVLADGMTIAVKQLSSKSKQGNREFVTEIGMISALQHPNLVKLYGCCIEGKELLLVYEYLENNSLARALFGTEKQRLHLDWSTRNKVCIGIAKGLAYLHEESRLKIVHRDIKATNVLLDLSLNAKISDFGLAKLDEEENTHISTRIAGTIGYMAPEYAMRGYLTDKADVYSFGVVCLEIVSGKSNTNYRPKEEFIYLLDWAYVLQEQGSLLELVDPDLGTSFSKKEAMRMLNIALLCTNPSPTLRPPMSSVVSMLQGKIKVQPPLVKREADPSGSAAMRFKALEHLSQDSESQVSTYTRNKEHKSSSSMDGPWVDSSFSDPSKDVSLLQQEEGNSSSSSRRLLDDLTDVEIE

“mCherry-REM1.2 (ProREM1.2-mCherry-REM1.2 in rir1-1/RIR1-GFP#3) (from UniProt P0CAP4 1-446) (natural protein)” showed a GFP donor fluorescence lifetime with acceptor (τDA) of 2.21 ns.
